{"source": "patent US20220160843A1", "about": "(priority 2019, published 2022)", "key": {"[1]": {"system": "P. aeruginosa", "assay": "Time-kill assay of GN lysin activity", "assay_type": "cell-based, Pseudomonas aeruginosa", "settings": "for Log10 CFU/mL T = 3 hr / Log10 CFU/mL T = l hr: lysin 10 μg/mL, T = 0 7.8; for Log10 CFU/mL T = 3 hr: buffer control 7.2, limit of detection 3.7; for Log10 CFU/mL T = l hr: buffer control 7.7", "description": "All treatments were incubated at 37° C. with aeration."}, "[2]": {"system": "carbapenem-resistant P. aeruginosa strains", "assay": "Resensitization of carbapenem-resistant clinical strains using carbapenems in combination with lysins", "assay_type": "cell-based", "description": "The checkerboard assays is based on a modification of the CLSI method for MIC determination by broth microdilution (26, 29). Checkerboards were constructed by first preparing columns of a 96-well polypropylene microtiter plate, in which each well had the same amount of antibiotic diluted 2-fold along the horizontal axis. […] Summation fractional inhibitory concentrations (ΣFICs) were calculated for each drug and the minimum ΣFIC value (ΣFICmin) was used to determine synergy. ΣFICs were calculated as follows: ΣFIC=FIC A+FIC B, where FIC A is the MIC of each antibiotic in the combination/MIC of each antibiotic alone, and FIC B is the MIC of each GN lysin in the combination/MIC of each GN lysin alone. The combination is considered synergistic when the ΣFIC is ≤0.5, strongly additive when the ΣFIC is >0.5 to <1, additive with the ΣFIC is 1−<2, and antagonistic when the ΣFIC is ≥2.\nUp to seven carbapenem-resistant isolates were assessed. […] See Clinical and Laboratory Standards Institute (CLSI), CLSI. […] M100 Performance Standards for Antimicrobial Susceptibility Testing; 29th Edition. Clinical and Laboratory Standards Institute, Wayne, Pa."}, "[3]": {"system": "P. aeruginosa strain ATCC 17647", "assay": "Minimal Biofilm Eradicating Concentration (MBEC), Calgary Biofilm Device", "assay_type": "cell-based, Pseudomonas aeruginosa", "settings": "24 h biofilm, 24 h treatment; minimum concentration removing >95% of biofilm biomass (crystal violet)", "text": "All samples were examined in triplicate."}, "[4]": {"system": "human erythrocytes", "assay_type": "cell-based", "description": "The hemolytic activity of the GN lysins was measured as the amount of hemoglobin released by the lysis of human erythrocytes (30). Briefly, 3 ml of fresh human blood cells (hRBCs) obtained from pooled healthy donors (BioreclamationIVT) in a polycarbonate tube containing heparin was centrifuged at 1,000×g for 5 min at 4° C. The erythrocytes obtained were washed three times with phosphate-buffered saline (PBS) solution (pH 7.2) and resuspended in […]. […] Intact erythrocytes were pelleted by centrifugation at 1,000×g for 5 min at 4° C., and the supernatant was transferred to a new 96-well plate. The release of hemoglobin was monitored by measuring the absorbance at 570 nm."}, "[5]": {"system": "P. aeruginosa", "assay": "Minimal inhibitory concentration (MIC), modified CLSI broth microdilution in CAA or CAA/HuS", "assay_type": "cell-based, Pseudomonas aeruginosa"}, "[6]": {"system": "carbapenem-resistant clinical strain, WC-452", "assay": "Checkerboard assay to examine synergy with antibiotics in CAA/HuS", "assay_type": "cell-based, P. aeruginosa"}, "[7]": {"settings": "HEPES buffer, ‡ indicates bactericidal activity"}}, "data": [{"molecule": "GN123: Native lysin, GenBank YP_009217242.1, SEQ ID NO: 27 (protein, Pseudomonas phage PhiPA3) MTLLKKGDKGDAVKQLQQKLKDLGYTLGVDGNFGNGTDTVVRSFQTKMKLSVDGVVGNGTMSTIDSTLAGIKAWKTSVPFPATNKSRAMAMPTLTEIGRLTNVDPKLLATFCSIESAFDYTAKPYKPDGTVYSSAEGWFQFLDATWDDEVRKHGKQYSFPVDPGRSLRKDPRANGLMGAEFLKGNAAILRPVLGHEPSDTDLYLAHFMGAGGAKQFLMADQNKLAAELFPGPAKANPNIFYKSGNIARTLAEVYAVLDAKVAKHRA", "values": [{"measurement": "bactericidal activity in the time-kill assay format", "setting": "[1]; 3-hour timepoint, 10 μg/mL, in either CAA/HuS or HEPES buffer", "result": "bactericidal activity"}, {"measurement": "Log10 CFU/mL T = 3 hr", "setting": "[1]; CAA/HuS, ‡ indicates bactericidal activity", "result": "<3.7‡ Log10 CFU/mL"}, {"measurement": "Log10 CFU/mL T = l hr", "setting": "[1]; CAA/HuS", "result": 6.7, "unit": "Log10 CFU/mL"}, {"measurement": "Log10 CFU/mL T = 3 hr", "setting": "[1]; [7]", "result": "<3.7‡ Log10 CFU/mL"}, {"measurement": "Log10 CFU/mL T = l hr", "setting": "[1]; [7]", "result": 5.6, "unit": "Log10 CFU/mL"}, {"measurement": "GN123 Alone", "setting": "[2]; isolate PA19, MIC of GN123 alone (imipenem checkerboard)", "result": 8, "unit": "µg/mL"}, {"measurement": "GN123 Alone", "setting": "[2]; isolate PA19, MIC of GN123 alone (meropenem checkerboard)", "result": 8, "unit": "µg/mL"}, {"measurement": "GN123 Combination", "setting": "[2]; isolate PA19, MIC of GN123 in combination with imipenem", "result": 0.125, "unit": "µg/mL"}, {"measurement": "GN123 Combination", "setting": "[2]; isolate PA19, MIC of GN123 in combination with meropenem", "result": 0.25, "unit": "µg/mL"}, {"measurement": "FICI", "setting": "[2]; isolate PA19, imipenem + GN123", "result": 0.03}, {"measurement": "FICI", "setting": "[2]; isolate PA19, meropenem + GN123", "result": 0.046}, {"measurement": "GN123 Alone", "setting": "[2]; isolate PA20, MIC of GN123 alone (imipenem checkerboard)", "result": 16, "unit": "µg/mL"}, {"measurement": "GN123 Alone", "setting": "[2]; isolate PA20, MIC of GN123 alone (meropenem checkerboard)", "result": 16, "unit": "µg/mL"}, {"measurement": "GN123 Combination", "setting": "[2]; isolate PA20, MIC of GN123 in combination with imipenem", "result": 2, "unit": "µg/mL"}, {"measurement": "GN123 Combination", "setting": "[2]; isolate PA20, MIC of GN123 in combination with meropenem", "result": 1, "unit": "µg/mL"}, {"measurement": "FICI", "setting": "[2]; isolate PA20, imipenem + GN123", "result": 0.188}, {"measurement": "FICI", "setting": "[2]; isolate PA20, meropenem + GN123", "result": 0.094}, {"measurement": "GN123 Alone", "setting": "[2]; isolate PA21, MIC of GN123 alone (imipenem checkerboard)", "result": 8, "unit": "µg/mL"}, {"measurement": "GN123 Alone", "setting": "[2]; isolate PA21, MIC of GN123 alone (meropenem checkerboard)", "result": 8, "unit": "µg/mL"}, {"measurement": "GN123 Combination", "setting": "[2]; isolate PA21, MIC of GN123 in combination with imipenem", "result": 1, "unit": "µg/mL"}, {"measurement": "GN123 Combination", "setting": "[2]; isolate PA21, MIC of GN123 in combination with meropenem", "result": 1, "unit": "µg/mL"}, {"measurement": "FICI", "setting": "[2]; isolate PA21, imipenem + GN123", "result": 0.141}, {"measurement": "FICI", "setting": "[2]; isolate PA21, meropenem + GN123", "result": 0.156}, {"measurement": "GN123 Alone", "setting": "[2]; isolate PA22, MIC of GN123 alone (imipenem checkerboard)", "result": 16, "unit": "µg/mL"}, {"measurement": "GN123 Alone", "setting": "[2]; isolate PA22, MIC of GN123 alone (meropenem checkerboard)", "result": 16, "unit": "µg/mL"}, {"measurement": "GN123 Combination", "setting": "[2]; isolate PA22, MIC of GN123 in combination with imipenem", "result": 1, "unit": "µg/mL"}, {"measurement": "GN123 Combination", "setting": "[2]; isolate PA22, MIC of GN123 in combination with meropenem", "result": 1, "unit": "µg/mL"}, {"measurement": "FICI", "setting": "[2]; isolate PA22, imipenem + GN123", "result": 0.188}, {"measurement": "FICI", "setting": "[2]; isolate PA22, meropenem + GN123", "result": 0.125}, {"measurement": "GN123 Alone", "setting": "[2]; isolate PA23, MIC of GN123 alone (imipenem checkerboard)", "result": 8, "unit": "µg/mL"}, {"measurement": "GN123 Alone", "setting": "[2]; isolate PA23, MIC of GN123 alone (meropenem checkerboard)", "result": 8, "unit": "µg/mL"}, {"measurement": "GN123 Combination", "setting": "[2]; isolate PA23, MIC of GN123 in combination with imipenem", "result": 2, "unit": "µg/mL"}, {"measurement": "GN123 Combination", "setting": "[2]; isolate PA23, MIC of GN123 in combination with meropenem", "result": 1, "unit": "µg/mL"}, {"measurement": "FICI", "setting": "[2]; isolate PA23, imipenem + GN123", "result": 0.281}, {"measurement": "FICI", "setting": "[2]; isolate PA23, meropenem + GN123", "result": 0.156}, {"measurement": "GN123 Alone", "setting": "[2]; isolate PA24, MIC of GN123 alone (imipenem checkerboard)", "result": 16, "unit": "µg/mL"}, {"measurement": "GN123 Alone", "setting": "[2]; isolate PA24, MIC of GN123 alone (meropenem checkerboard)", "result": 16, "unit": "µg/mL"}, {"measurement": "GN123 Combination", "setting": "[2]; isolate PA24, MIC of GN123 in combination with imipenem", "result": 2, "unit": "µg/mL"}, {"measurement": "GN123 Combination", "setting": "[2]; isolate PA24, MIC of GN123 in combination with meropenem", "result": 0.5, "unit": "µg/mL"}, {"measurement": "FICI", "setting": "[2]; isolate PA24, imipenem + GN123", "result": 0.188}, {"measurement": "FICI", "setting": "[2]; isolate PA24, meropenem + GN123", "result": 0.094}, {"measurement": "GN123 Alone", "setting": "[2]; isolate WC-452, MIC of GN123 alone (imipenem checkerboard)", "result": 16, "unit": "µg/mL"}, {"measurement": "GN123 Alone", "setting": "[2]; isolate WC-452, MIC of GN123 alone (meropenem checkerboard)", "result": 16, "unit": "µg/mL"}, {"measurement": "GN123 Combination", "setting": "[2]; isolate WC-452, MIC of GN123 in combination with imipenem", "result": 2, "unit": "µg/mL"}, {"measurement": "GN123 Combination", "setting": "[2]; isolate WC-452, MIC of GN123 in combination with meropenem", "result": 1, "unit": "µg/mL"}, {"measurement": "FICI", "setting": "[2]; isolate WC-452, imipenem + GN123", "result": 0.188}, {"measurement": "FICI", "setting": "[2]; isolate WC-452, meropenem + GN123", "result": 0.125}, {"measurement": "resensitization of carbapenem-resistant isolates to IPM and MEM", "setting": "[2]; synergistic combinations with imipenem or meropenem, breakpoints ≤2 sensitive, 4 intermediate, ≥8 resistant", "result": "reductions of IPM and MEM MICS to below breakpoint values"}, {"measurement": "MBEC", "setting": "[3]", "result": 4, "unit": "µg/mL"}, {"measurement": "hemolytic activity", "setting": "[4]", "result": "no hemolytic activity whatsoever"}, {"measurement": "MIC (μg/mL) in CAA", "setting": "[5]; CAA media", "result": 2, "unit": "µg/mL"}, {"measurement": "MIC (μg/mL in CAA/HuS)", "setting": "[5]; CAA supplemented with 25% human serum", "result": 128, "unit": "µg/mL"}, {"measurement": "FICI, Fosfomycin", "setting": "[6]; lysin + fosfomycin", "result": 0.250}, {"measurement": "FICI, Gentamicin", "setting": "[6]; lysin + gentamicin", "result": 0.375}, {"measurement": "FICI, Imipenem", "setting": "[6]; lysin + imipenem", "result": 0.188}, {"measurement": "FICI, Meropenem", "setting": "[6]; lysin + meropenem", "result": 0.125}, {"measurement": "FICI, Piperacillin", "setting": "[6]; lysin + piperacillin", "result": 0.500}]}]}
